The values that follow come from publication PMC5869385.

For the test, the target named is Torpedo muscle-type α1_(2)β1γδ nicotinic acetylcholine receptor (Torpedo marmorata (endogenous in electric organ)) (UniProt P02711). The experiment in a line: radioligand binding.

The Ki is a dissociation constant, usually derived from enzyme kinetics or from competition with a known ligand. Read a low Ki as higher affinity. In the case of “α-cobratoxin from Naja kaouthia (from UniProt P01391 1-71) (natural protein)”, the inhibition constant Ki came to 0.397 nM.
